Test results from paper PMC11870435 (2025).

Target: H3HK68 full length hemagglutinin WT trimer (A/Hong Kong/1/1968(H3N2)) (Influenza A virus A/Hong …, UniProt Q91MA7)
Test: BLI

H3HK68 full length hemagglutinin WT trimer (A/Hong Kong/1/1968(H3N2)), sequence (Q91MA7 17-566, one chain of several): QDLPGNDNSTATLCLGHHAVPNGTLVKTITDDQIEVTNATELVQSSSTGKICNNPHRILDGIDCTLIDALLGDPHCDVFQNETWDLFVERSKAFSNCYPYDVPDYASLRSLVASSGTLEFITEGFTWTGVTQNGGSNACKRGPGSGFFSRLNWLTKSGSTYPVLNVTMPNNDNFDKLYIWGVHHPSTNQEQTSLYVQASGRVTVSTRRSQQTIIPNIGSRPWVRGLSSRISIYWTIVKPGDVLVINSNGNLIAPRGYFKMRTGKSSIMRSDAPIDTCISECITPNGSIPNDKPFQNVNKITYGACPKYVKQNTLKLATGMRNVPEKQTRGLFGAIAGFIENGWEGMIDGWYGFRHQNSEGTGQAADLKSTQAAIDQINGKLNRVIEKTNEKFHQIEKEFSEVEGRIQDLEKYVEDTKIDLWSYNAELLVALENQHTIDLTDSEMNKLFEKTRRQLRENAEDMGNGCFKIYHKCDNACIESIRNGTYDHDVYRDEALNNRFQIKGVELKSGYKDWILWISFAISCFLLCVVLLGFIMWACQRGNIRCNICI

B1: F045-92 IgG (H3 RBS-specific antibody) (antibody, V domains shown)
VH: EVQLVESGAEVKKPGSSVKVSCRASGTFYKYAINWVRQAPGQGLEWMGGIIPFFGTTNYAQKFQGRLTITADGSTNTAYMQLDSLRSEDTAVYYCAGPSITESHYCLDCAAKDYYYGLDVWGQGTTVTVSS
VL: not shown
For B1, the Kd was 10 nM.
